Consider 37 molecules from patent US8357523B2, “Beta-glucosidase variant enzymes and related polynucleotides” (Codexis, Inc., priority 2009, dated 2013).

Positions count from the first letter of the chain named.

Sequences and labels used below:
B1: 145 (protein)
chain: STAIAQEGAAPAAILHPEKWPRPATQRLIDPAVEKRVDALLKQLSVEEKVGQVIQGDIGTITPEDLRKYPLGSILAGGDSGPNGDDRAPPKEWLDLADAFYRVSLEKRPGHTPIPVLFGIDAVHGHGNIGSATIFPHNIALGATRSPELLRRIGEVTAEEMAATGIDWTFAPALSVVRDDRWGRTYEGFSEDPEIVASYSAAIVEGVQGKYGSKDFMAPGRIVACAKHFLADGGTDQGRDQGDARISEDELIRIHNAGYPPAIDAGVLTVMASFSSWQGIKHHGHKQLLTDVLKGQMGFNGFIVGDWNAHDQVPGCTKFNCPTSLIAGLDMYMAADSWKQLYENTLAQVKDGTIPMARLDDAVRRILRVKVLAGLFEKPAPKDRPGLPGLETLGSPEHRAVGREAVRKSLVLLKNDKGTLPLSPKARVLVAGDGADNIGKQSGGWTISWQGTGNRNDEFPGATSILGGIRDAVADAGGSVEFDVAGQYKTKPDVAIVVFGEEPYAEFQGDVETLEYQPDQKQDLALLKKLKDQGIPVVAVFLSGRPMWVNPELNASDAFVAAWLPGTEGGGVADVLFTDKAGKVQHDFAGKLSYSWPRTAAQTTVNRGDADYNPLFAYGYGLTYKDKSKVGTLPEESGVPAEARQNAGIYFRAGALRLPGRFL
B2: 151 (protein)
chain: B1 chain with D79N, A143M, S146D, E159V, A162T, A173C, C225S, L514Q
B3: 156 (protein)
chain: B1 chain with N128K, A143M, S146D, E159V, A162T, Y211F, I222S, Q237R
B4: 153 (protein)
chain: B1 chain with E92V, N128K, A143M, S146D, E159V, S198A, A201P, I222S
B5: 173 (protein)
chain: B1 chain with I14M, N128K, S146D, E159V, A162T, S198A, A201P, Q487R
B6: 147 (protein)
chain: B1 chain with N128K, S146D, E159V, A173C, I222S, C225S
B7: 178 (protein)
chain: B1 chain with D79N, S146D, E159V, I222A, A373T
B8: 154 (protein)
chain: B1 chain with D79N, A143M, S146D, E159Q, S198A, A201P, I222A, F229I
B9: 76 (protein)
chain: B1 chain with D79N, N128K, S146D, E159V, S198A, Y211F, C225S
B10: 149 (protein)
chain: B1 chain with N128K, E159Q, S198A, A201P
B11: 162 (protein)
chain: B1 chain with D79N, S146D, E159V, A173C, S198A, A201P, P219V, C225S
B12: 168 (protein)
chain: B1 chain with D79N, N128K, S146D, E159Q, S198A, A201P, I222S
B13: 79 (protein)
chain: B1 chain with D79N, N128K, S146D, E159V, S198A, Y211F
B14: 158 (protein)
chain: B1 chain with S146D, E159V, I166T
B15: 172 (protein)
chain: B1 chain with D79N, S146D, E159Q, S198A, I222S, G534E
B16: 74 (protein)
chain: B1 chain with D79N, N128K, S146D, E159V, S198A, A201P, Y211F
B17: 166 (protein)
chain: B1 chain with S146D, G154V, E159V, S198A
B18: 77 (protein)
chain: B1 chain with D79N, S146D, E159V, S198A, A201P, Y211F
B19: 78 (protein)
chain: B1 chain with D79N, S146D, E159V, S198A, Y211F
B20: 171 (protein)
chain: B1 chain with S146D, P219V, C225S
B21: 179 (protein)
chain: B1 chain with N128K, S146D, E159V, A173C, C225S
B22: 167 (protein)
chain: B1 chain with N128K, S146D, E159V, S198A, Y211F, C225S
B23: 75 (protein)
chain: B1 chain with D79N, S146D, E159V, S198A, Y211F, I222V, C225S
B24: 165 (protein)
chain: B1 chain with D79N, A143M, S146D, E159V, S198A, A201P, Y211F
B25: 170 (protein)
chain: B1 chain with D79N, N128K, S198A, A201P, A573V
B26: 150 (protein)
chain: B1 chain with I114V, N128K, S146D, E159V, A162T
B27: 155 (protein)
chain: B1 chain with S146D, E159V, Y211F
B28: 164 (protein)
chain: B1 chain with N128K, E159V, S198A, Y211F
B29: 148 (protein)
chain: B1 chain with S146D, Y211F
B30: 174 (protein)
chain: B1 chain with E34D, N128K, A143M, S146D, S198A, A201P, C225S
B31: 160 (protein)
chain: B1 chain with D79N, E159Q, S198A, A201P, I222A
B32: 169 (protein)
chain: B1 chain with S146D, E159Q, A162T, S198A, A201P
B33: 146 (protein)
chain: B1 chain with A143M, S146D, E159Q, S198A, A201P, Y211F, K378R
B34: 163 (protein)
chain: B1 chain with N128K, E159V, A162T, A173C, C225S
B35: 152 (protein)
chain: B1 chain with S146D, E159Q, S198A, A201P, I222A
B36: 159 (protein)
chain: B1 chain with S146D, E159V, A162T, Y211F
B37: 175 (protein)
chain: B1 chain with E159V

The nature of the data set: High throughput cellobiose assay: fold improvement in cellobiase activity of CelA variants over a control enzyme (Tables 2A-2D, 3, 5, 6, 7). Format: biochemical. The settings on record: 3.3 g/l cellobiose, 55° C. and pH 6.0.
Consider B1, for which the “Fold improvement over Control Variant No. 5 from Table 2A” value is reported as “+++ (+++ = 6 to 13 fold improvement over control Variant No. 2)”.

Turning to B2, the “Fold improvement over Control Variant No. 5 from Table 2A” value is on record as “+++ (+++ = 6 to 13 fold improvement over control Variant No. 2)”.

Consider B3, for which the “Fold improvement over Control Variant No. 5 from Table 2A” value is listed as “+++ (+++ = 6 to 13 fold improvement over control Variant No. 2)”.

Regarding B4, the “Fold improvement over Control Variant No. 5 from Table 2A” value is reported as “++ (++ = 1.1 to 6 fold improvement over control Variant No. 2)”.

Consider B5, for which the “Fold improvement over Control Variant No. 5 from Table 2A” value is “+++ (+++ = 6 to 13 fold improvement over control Variant No. 2)”.

For the molecule B6, the “Fold improvement over Control Variant No. 5 from Table 2A” value is on record as “+++ (+++ = 6 to 13 fold improvement over control Variant No. 2)”.

Turning to B7, the “Fold improvement over Control Variant No. 5 from Table 2A” value is “+++ (+++ = 6 to 13 fold improvement over control Variant No. 2)”.

B8: the “Fold improvement over Control Variant No. 5 from Table 2A” value is “++ (++ = 1.1 to 6 fold improvement over control Variant No. 2)”.

B9: the “Fold improvement over Control Variant No. 5 from Table 2A” value is “++ (++ = 1.1 to 6 fold improvement over control Variant No. 2)”.

For the molecule B10, the “Fold improvement over Control Variant No. 5 from Table 2A” value is recorded as “+++ (+++ = 6 to 13 fold improvement over control Variant No. 2)”.

As to B11, the “Fold improvement over Control Variant No. 5 from Table 2A” value is recorded as “+++ (+++ = 6 to 13 fold improvement over control Variant No. 2)”.

On to B12, for which the “Fold improvement over Control Variant No. 5 from Table 2A” value was “+++ (+++ = 6 to 13 fold improvement over control Variant No. 2)”.

On to B13, for which the “Fold improvement over Control Variant No. 5 from Table 2A” value was “++ (++ = 1.1 to 6 fold improvement over control Variant No. 2)”.

With B14, the “Fold improvement over Control Variant No. 5 from Table 2A” value is “++ (++ = 1.1 to 6 fold improvement over control Variant No. 2)”.

As to B15, the “Fold improvement over Control Variant No. 5 from Table 2A” value was “+++ (+++ = 6 to 13 fold improvement over control Variant No. 2)”.

B16: the “Fold improvement over Control Variant No. 5 from Table 2A” value is recorded as “++ (++ = 1.1 to 6 fold improvement over control Variant No. 2)”.

For the molecule B17, the “Fold improvement over Control Variant No. 5 from Table 2A” value is listed as “+++ (+++ = 6 to 13 fold improvement over control Variant No. 2)”.

With B18, the “Fold improvement over Control Variant No. 5 from Table 2A” value is listed as “++ (++ = 1.1 to 6 fold improvement over control Variant No. 2)”.

On to B19, for which the “Fold improvement over Control Variant No. 5 from Table 2A” value is on record as “++ (++ = 1.1 to 6 fold improvement over control Variant No. 2)”.

As for B20, the “Fold improvement over Control Variant No. 5 from Table 2A” value was “+++ (+++ = 6 to 13 fold improvement over control Variant No. 2)”.

For the molecule B21, the “Fold improvement over Control Variant No. 5 from Table 2A” value is recorded as “+++ (+++ = 6 to 13 fold improvement over control Variant No. 2)”.

Turning to B22, the “Fold improvement over Control Variant No. 5 from Table 2A” value is recorded as “++ (++ = 1.1 to 6 fold improvement over control Variant No. 2)”.

Take B23: the “Fold improvement over Control Variant No. 5 from Table 2A” value is reported as “++ (++ = 1.1 to 6 fold improvement over control Variant No. 2)”.

As for B24, the “Fold improvement over Control Variant No. 5 from Table 2A” value is “+++ (+++ = 6 to 13 fold improvement over control Variant No. 2)”.

Take B25: the “Fold improvement over Control Variant No. 5 from Table 2A” value was “++ (++ = 1.1 to 6 fold improvement over control Variant No. 2)”.

Take B26: the “Fold improvement over Control Variant No. 5 from Table 2A” value was “+++ (+++ = 6 to 13 fold improvement over control Variant No. 2)”.

B27: the “Fold improvement over Control Variant No. 5 from Table 2A” value is “+++ (+++ = 6 to 13 fold improvement over control Variant No. 2)”.

On to B28, for which the “Fold improvement over Control Variant No. 5 from Table 2A” value is on record as “+++ (+++ = 6 to 13 fold improvement over control Variant No. 2)”.

For B29, the “Fold improvement over Control Variant No. 5 from Table 2A” value was “+++ (+++ = 6 to 13 fold improvement over control Variant No. 2)”.

Consider B30, for which the “Fold improvement over Control Variant No. 5 from Table 2A” value is recorded as “++ (++ = 1.1 to 6 fold improvement over control Variant No. 2)”.

B31: the “Fold improvement over Control Variant No. 5 from Table 2A” value is listed as “+++ (+++ = 6 to 13 fold improvement over control Variant No. 2)”.

Consider B32, for which the “Fold improvement over Control Variant No. 5 from Table 2A” value is “+++ (+++ = 6 to 13 fold improvement over control Variant No. 2)”.

As to B33, the “Fold improvement over Control Variant No. 5 from Table 2A” value is listed as “+++ (+++ = 6 to 13 fold improvement over control Variant No. 2)”.

With B34, the “Fold improvement over Control Variant No. 5 from Table 2A” value is “+++ (+++ = 6 to 13 fold improvement over control Variant No. 2)”.

Consider B35, for which the “Fold improvement over Control Variant No. 5 from Table 2A” value was “+++ (+++ = 6 to 13 fold improvement over control Variant No. 2)”.

For the molecule B36, the “Fold improvement over Control Variant No. 5 from Table 2A” value was “+++ (+++ = 6 to 13 fold improvement over control Variant No. 2)”.

Regarding B37, the “Fold improvement over Control Variant No. 5 from Table 2A” value is reported as “+++ (+++ = 6 to 13 fold improvement over control Variant No. 2)”.
